Assay results as given in FireProtDB.

B1: Tryptophan synthase alpha chain, P00929 (parent)
chain: MERYENLFAQLNDRREGAFVPFVTLGDPGIEQSLKIIDTLIDAGADALELGVPFSDPLADGPTIQNANLRAFAAGVTPAQCFEMLALIREKHPTIPIGLLMYANLVFNNGIDAFYARCEQVGVDSVLVADVPVEESAPFRQAALRHNIAPIFICPPNADDDLLRQVASYGRGYTYLLSRSGVTGAENRGALPLHHLIEKLKEYHAAPALQGFGISSPEQVSAAVRAGAAGAISGSAIVKIIEKNLASPKQMLAELRSFVSAMKAASRA
B2: Alpha-lactalbumin, P00712 (parent)
chain: MMSFVSLLLVGILFHATQAEQLTKCEVFQKLKDLKDYGGVSLPEWVCTAFHTSGYDTQAIVQNNDSTEYGLFQINNKIWCKDDQNPHSRNICNISCDKFLDDDLTDDIVCAKKILDKVGINYWLAHKALCSEKLDQWLCEKL
B3: Ribonuclease, P00648 (parent)
chain: MMKMEGIALKKRLSWISVCLLVLVSAAGMLFSTAAKTETSSHKAHTEAQVINTFDGVADYLQTYHKLPDNYITKSEAQALGWVASKGNLADVAPGKSIGGDIFSNREGKLPGKSGRTWREADINYTSGFRNSDRILYSSDWLIYKTTDHYQTFTKIR

Variants of: B1
Details: Salmonella typhimurium (strain LT2 / SGSC1412 / ATCC 700720); pH 7.8; Thermal; Enzyme activity; sodium N/N-bis(2-hydroxyethyl)glycine 0.05 M; structure 2WSY; whole UniProt chain shown

Variant	Tm [°C]	change of melting temperature, mutant - wild type (higher = more stable) [°C]
C118S	41	-5

Variants of: B2
Details: Capra hircus; pH 7; 25 °C; Thermal; CD; sodium cacodylate 50 mM; CaCl2 1 mM; structure 1HFY; whole UniProt chain shown

Variant	ddG of mutation (higher = less stable) [kcal/mol]
T48I	-1.37
T48V	-1.86

Variants of: B3
Details: Bacillus amyloliquefaciens; pH 6.3; 25 °C; Urea; Fluorescence; MES 50 mM; reversible: yes; structure 1BNI; whole UniProt chain shown

Variant	ddG of mutation (higher = less stable) [kcal/mol]
T63S	1.87
T73A	2.14
I143A	3.52
I143V	0.98
L61A	4.8
H65Q	1.6

Same assay, conditions: Bacillus amyloliquefaciens; pH 6.3; 25 °C; Thermal; Fluorescence; MES 50 mM; structure 1BNI; whole UniProt chain shown

Variant	ddG of mutation (higher = less stable) [kcal/mol]	unfolding free energy [kcal/mol]
D122N	5	5.2
D101A	3.3	6.9
D101N	2.6	7.6

Same assay, conditions: Bacillus amyloliquefaciens; pH 6.15; 25 °C; Urea; Fluorescence; MES 19.3 mM; reversible: yes; structure 1BNI; whole UniProt chain shown

Variant	ddG of mutation (higher = less stable) [kcal/mol]	denaturant midpoint (higher = more stable) [M]	unfolding free energy [kcal/mol]
F54L	4.1	2.42	6.4

Same assay, conditions: Bacillus amyloliquefaciens; pH 6.3; 25 °C; Urea; Fluorescence; MES 1 M; structure 1BNI; whole UniProt chain shown

Variant	ddG of mutation (higher = less stable) [kcal/mol]	unfolding free energy [kcal/mol]
A79G	0.91	7.99
K74A	-0.53	9.43
H65A	2.15	6.75
H65G	0.89	8.01

Same assay, conditions: Bacillus amyloliquefaciens; pH 6.3; 25 °C; Urea; Fluorescence; MES 19.3 mM; reversible: yes; structure 1BNI; whole UniProt chain shown

Variant	ddG of mutation (higher = less stable) [kcal/mol]	denaturant midpoint (higher = more stable) [M]	unfolding free energy [kcal/mol]
I143A	4	2.24	6.5

Same assay, conditions: Bacillus amyloliquefaciens; pH 2.7; Thermal; CD; glycine-HCl 20 mM; KCl 200 mM; reversible: yes; structure 1BNI; whole UniProt chain shown

Variant	Tm [°C]
I51A I98V	25.7

Same assay, conditions: Bacillus amyloliquefaciens; pH 2.7; Thermal; DSC; glycine-HCl 20 mM; KCl 200 mM; reversible: yes; structure 1BNI; whole UniProt chain shown

Variant	Tm [°C]
I51A I98V	25.4

Same assay, conditions: Bacillus amyloliquefaciens; pH 6.3; 25 °C; Urea; Fluorescence; MES 50 mM; structure 1BNI; whole UniProt chain shown

Variant	ddG of mutation (higher = less stable) [kcal/mol]
E120Q	2.7
E120F	2.1
E120W	2.2

Same assay, conditions: Bacillus amyloliquefaciens; pH 6.3; 25 °C; Urea; Fluorescence; MES 1.00 M; NaCl 613 mM; reversible: yes; structure 1BNI; whole UniProt chain shown

Variant	ddG of mutation (higher = less stable) [kcal/mol]
Y60A	3.71
